Source: IntAct's records for PubMed 19490895

B1: Regulatory protein NPR1 (Arabidopsis thaliana (Mouse-ear cress)), P93002 (parent)
chain: MDTTIDGFADSYEISSTSFVATDNTDSSIVYLAAEQVLTGPDVSALQLLSNSFESVFDSPDDFYSDAKLVLSDGREVSFHRCVLSARSSFFKSALAAAKKEKDSNNTAAVKLELKEIAKDYEVGFDSVVTVLAYVYSSRVRPPPKGVSECADENCCHVACRPAVDFMLEVLYLAFIFKIPELITLYQRHLLDVVDKVVIEDTLVILKLANICGKACMKLLDRCKEIIVKSNVDMVSLEKSLPEELVKEIIDRRKELGLEVPKVKKHVSNVHKALDSDDIELVKLLLKEDHTNLDDACALHFAVAYCNVKTATDLLKLDLADVNHRNPRGYTVLHVAAMRKEPQLILSLLEKGASASEATLEGRTALMIAKQATMAVECNNIPEQCKHSLKGRLCVEILEQEDKREQIPRDVPPSFAVAADELKMTLLDLENRVALAQRLFPTEAQAAMEIAEMKGTCEFIVTSLEPDRLTGTKRTSPGVKIAPFRILEEHQSRLKALSKTVELGKRFFPRCSAVLDQIMNCEDLTQLACGEDDTAEKRLQKKQRYMEIQETLKKAFSEDNLELGNSSLTDSTSSTSKSTGGKRSNRKLSHRRR
partner: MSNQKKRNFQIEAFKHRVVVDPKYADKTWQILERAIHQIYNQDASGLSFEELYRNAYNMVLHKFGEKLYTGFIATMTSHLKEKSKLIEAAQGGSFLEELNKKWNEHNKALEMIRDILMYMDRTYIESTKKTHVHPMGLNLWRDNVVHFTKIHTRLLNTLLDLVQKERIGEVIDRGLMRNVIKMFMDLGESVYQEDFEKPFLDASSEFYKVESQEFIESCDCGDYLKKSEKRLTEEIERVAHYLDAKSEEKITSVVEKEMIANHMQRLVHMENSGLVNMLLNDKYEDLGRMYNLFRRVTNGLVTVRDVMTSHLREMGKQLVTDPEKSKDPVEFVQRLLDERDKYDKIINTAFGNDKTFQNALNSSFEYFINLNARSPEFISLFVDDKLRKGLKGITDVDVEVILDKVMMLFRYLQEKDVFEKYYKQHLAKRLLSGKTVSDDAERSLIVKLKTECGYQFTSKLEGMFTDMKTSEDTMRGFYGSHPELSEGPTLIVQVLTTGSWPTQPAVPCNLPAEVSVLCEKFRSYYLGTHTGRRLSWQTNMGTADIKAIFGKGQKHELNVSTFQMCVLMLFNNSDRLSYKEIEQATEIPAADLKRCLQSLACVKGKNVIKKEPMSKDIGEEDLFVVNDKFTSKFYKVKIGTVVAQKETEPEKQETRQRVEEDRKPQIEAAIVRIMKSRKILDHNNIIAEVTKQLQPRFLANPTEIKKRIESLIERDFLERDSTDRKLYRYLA

Variants of: B1
Settings: with cul3a_arath CUL3A

Row | effect of a mutation on the interaction | Variant
1 | decreasing interaction | S11A;S15A
